The target of this assay is CCR3 (UniProt P51677).
CCR3, sequence (P51677 whole entry): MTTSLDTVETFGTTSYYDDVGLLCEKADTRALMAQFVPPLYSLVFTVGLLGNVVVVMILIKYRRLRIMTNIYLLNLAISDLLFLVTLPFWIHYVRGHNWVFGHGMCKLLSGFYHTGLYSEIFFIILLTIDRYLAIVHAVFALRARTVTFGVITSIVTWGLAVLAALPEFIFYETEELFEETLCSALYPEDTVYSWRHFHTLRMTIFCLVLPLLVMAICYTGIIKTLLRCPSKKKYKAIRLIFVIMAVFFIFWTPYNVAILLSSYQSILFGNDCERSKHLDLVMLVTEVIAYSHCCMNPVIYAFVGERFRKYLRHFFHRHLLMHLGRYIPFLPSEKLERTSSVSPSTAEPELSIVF

CCL5, sequence (P13501 24-91): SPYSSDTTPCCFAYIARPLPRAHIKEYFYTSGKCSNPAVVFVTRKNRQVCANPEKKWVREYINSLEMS

In the case of “CCL5 (from UniProt P13501 24-91) (ligand)”, the reduction of CCR3 surface expression on human eosinophils (flow cytometry), 12.5 nM CCL5, 15 and 60 min amounted to 56.1%.

Source of the values: paper PMC3711072.
